Laboratory results from patent US20110020369A1 (SCHERING, published 2011).

Columns and labels:
[1] = target: T1, human TSLPR on Ba/F3-hTSLPR-hIL7Ra cells (human, UniProt Q9HC73 23-371); test: cell-based or functional assay
T1 sequence (looked up): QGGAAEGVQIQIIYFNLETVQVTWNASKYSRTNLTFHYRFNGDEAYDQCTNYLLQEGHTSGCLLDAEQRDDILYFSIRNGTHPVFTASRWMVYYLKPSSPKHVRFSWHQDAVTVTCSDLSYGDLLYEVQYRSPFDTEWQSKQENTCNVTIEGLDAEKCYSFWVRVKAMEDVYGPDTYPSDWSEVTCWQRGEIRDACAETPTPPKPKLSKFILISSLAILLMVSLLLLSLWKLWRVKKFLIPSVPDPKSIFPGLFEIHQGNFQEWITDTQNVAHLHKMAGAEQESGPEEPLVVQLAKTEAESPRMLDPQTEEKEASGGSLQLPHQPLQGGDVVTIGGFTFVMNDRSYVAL

[2] = target: cynomolgus TSLPR on Ba/F3-cTSLPR-cIL7Ra cells (cynomolgus monkey); test: cell-based or functional assay
cTSLPR-Ig [3] = target: T2, cTSLPR-Ig (cynomolgus monkey); test: ELISA, plate coated with TSLPR 50 ng/well, HRP goat anti-mouse detection
T2 construct: also called cyTSLP R-hIg P749; Mam-Trans[FlagPreProTrypsin]DELTA2_NHP[Ig]
Description: The ELISA measures the EC50 of certain mouse anti-TSLPR antibodies generated according to Example 2 are reported on Table 4. The antibodies were purified from hybridoma supernatants, and his-hTSLPR or cTSLPR-Ig was used to determine binding affinity.
Coating of plates was performed as follows: TSLPR (50 ng per well) in PBS was incubated at 4° C. overnight. Plates were washed with 1 cycle (3 washes/cycle) on a Molecular Devices plate washer. Antibody was then titrated across a row of eight wells in the range of 3000 ng/mL to […] using serial 3-fold dilutions and incubated for 60 min. at 25° C. Plates were washed for 1 cycle, HRP-goat anti-mouse) (1:2,000 dilution) was added at 0.05 mL/well and incubated for 60 min at 25° C. Plates were washed for 1 cycles. ABTS substrate was added at 0.05 mL/well and incubated 10 min at 25 C. Plates read at) or A_{405 nm}. [0223]

cTSLPR-Ig [4] = target: T2, cTSLPR-Ig; test: SPR BIAcore T100, cyTSLPR-hIg amine-coupled on CM5, antibody as analyte, bivalent analyte model, n = 6
Description: The kinetic binding activities of the mouse anti human TSLPR antibody 13H5, chimeric anti-human TSLPR 13H5 antibody, rat anti-human TSLPR antibody 18B3, and mouse anti-human TSLPR antibody 70E8 against both human (hu) and cynomolgus monkey (cyno) TSLPR were measured by surface plasmon resonance using a BIAcore T100 system (BIAcore AB, Upsalla, Sweden). Approximately 70RUs of […] were immobilized via amine coupling chemistry onto a Sensor Chip CM5 (Research grade, BR-1006-68). HBS-EP buffer (BR-1006-69) was used as the running buffer with a flow rate of 30 μL/min. Antibodies at varying concentrations ranging from 0.01 to 600 nM were injected over the immobilized hu or cyno TSLP surfaces at a flow rate of 30 μL/min. Following each injection cycle the CM5 chip surface was regenerated using a series of solutions (10 mM Glycine pH 1.5 and 25 mM NaOH respectively) at a flow rate of 75 μL/min.
Background subtraction binding sensorgrams were used for analyzing the rate constant of association (ka) and dissociation (kd), and the equilibrium dissociation constant KD. The resulting data sets shown in Table 5 were fitted with a bivalent analyte model using the BlAevaluation software (version 1.0).

B1: mouse anti human TSLPR antibody 13H5 (antibody, mouse IgG1, V domains shown)
VH: QVLLKQSGPSLVQPSQSLSITCTVSGFSLSRYGVHWVRQSPGKGLEWLGVIWRSGSTDYNAAFMSRLSITQDNSKSQVFFNMNSLQSDDSAIYYCAKKAFYVMDYWGQGTSVTVSS
VL: DIQMTQTTSSLSASLGDRVTISCRASQDISIYLNWYQQKPDGTVKLLIYYTSRLHSGVPSRFSGSGSGTNFSLTITNLEEEDIATYFCQQGNTLPWTFGGGTKLEIKR
notes: Mouse IgG1/kappa purified from hybridoma supernatant; also called m13H5; LB55.13H5.2C3
Avg IC50, inhibition of hTSLP-induced proliferation of Ba/F3-huTSLPR cells [1]: 0.0121 µg/mL
IC50 Assay I, Ba/F3-huTSLPR proliferation [1]: 0.0127 µg/mL
IC50 Assay II, Ba/F3-huTSLPR proliferation [1]: 0.014 µg/mL
IC50 Assay III, Ba/F3-huTSLPR proliferation [1]: 0.0097 µg/mL
Avg IC50, Ba/F3-cyTSLPR proliferation [2]: 0.0129 µg/mL
IC50 Assay I, Ba/F3-cyTSLPR proliferation [2]: 0.0104 µg/mL
IC50 Assay II, Ba/F3-cyTSLPR proliferation [2]: 0.0148 µg/mL
IC50 Assay III, Ba/F3-cyTSLPR proliferation [2]: 0.0134 µg/mL
EC50 (cTSLPR-Ig [3]): > 0.001 µg/mL
Kd (cTSLPR-Ig [4]): 89 pM
koff (cTSLPR-Ig [4]): 7.1e-05 s⁻¹
kon (cTSLPR-Ig [4]): 800000 M⁻¹ s⁻¹
